One molecule from patent US20080064629A1, “Amphiregulin as a Protective Agent in Acute Hepatic Injury” (priority 2004, published 2008) can be followed below.

Format in all cases: cell-based
In one assay the test system is rat hepatocytes. As to the kind of experiment: DNA synthesis ([3H]thymidine incorporation) in cultured rat hepatocytes. The settings on record: increasing concentrations of AR, 30 h of treatment. How it is done:
For DNA synthesis, rat hepatocytes were plated to a density of 3×10^4 cells/well in 96-well plates coated with collagen in MEM medium supplemented with 10% FCS. Five hours after plating, the medium was changed and cells were maintained in absence of serum for another 20 hours. DNA synthesis was assayed after 30 h of treatment with AR. A pulse of [^3H]thymidine was administered (1 μCi/well)(Amersham Biosciences, Piscataway, N.J., USA) 22 h after the addition of AR. Cells were harvested, and the incorporation of thymidine was determined with a scintillation counter. Evaluations were made of the effect of AR on DNA synthesis in the presence of MEK1 inhibitor, PD98059, PI-3K inhibitor, LY294002, p38 MAPK inhibitor, SB202190, JNK inhibitor, SP600125, and of the EGF-R tyrosine kinase activity inhibitor, PD153035—all supplied by Calbiochem.
On the technique in general: Incorporation of labelled thymidine or its analogues reports DNA synthesis.

For a further assay, the system named is isolated rat hepatocytes. As to the kind of experiment: TGFα and CT-1 gene expression in cultured rat hepatocytes treated with AR. The conditions noted are these: AR treatment, different periods of time. How it is done:
Hepatocytes were isolated from male Wistar rats (150 g) and C57/BL6 mice (20 g) by perfusion with collagenase (Gibco-BRL, Paisley, UK) as described elsewhere [(18), (20)]. Cells (5×10^5 cells per well) were plated onto 6-well plates coated with collagen (type I collagen, Collaborative Biomedical, Bedford, Mass., USA). Cultures were maintained in MEM medium supplemented with 10% fetal calf serum (FCS), non-essential amino acids, glutamine 2 mM and antibiotics (all supplied by Gibco-BRL). After 2 h of incubation, the medium was removed and cells were again cultured in the same medium with 5% FCS. […]
Total RNA was extracted using TRI reagent (Sigma). […] PCR products were subjected to electrophoresis in 2% agarose gels, followed by staining with ethidium bromide and quantification using Molecular Analyst software (Bio-Rad, Hercules, Calif., USA). […]
Real time PCR was performed using an iCycler (BioRad) and iQ SYBR Green Supermix (Bio-Rad). In order to monitor the specificity of final PCR products, the latter were analysed by fusion curves and electrophoresis. The amount of each transcript was expressed as n-fold the difference versus expression of the reference gene (β-actin)(2^ΔCt, where ΔCt represents the difference in threshold cycle between target genes and control gene).

The test system of assay [1] is mouse hepatocytes in primary culture. As to the kind of experiment: Apoptosis induced by actinomycin D and Jo2 antibody in mouse hepatocytes in primary culture. From the text: In order to determine whether the in vivo antiapoptotic effects of AR could be mediated by direct action of AR on liver parenchymal cells, the inventors used mouse hepatocytes in primary culture. It has been reported that hepatocytes exposed to Jo-2 antibodies undergo apoptosis effectively in presence of actinomycin D [(5), (6), (33) Ni, R., Tomita, Y., Matsuda, K., Ichiara, A., Ishimura, K., Ogasawara, J., Nagata, S. 1994. Fas-mediated apoptosis in primary cultured mouse hepatocytes. Exp. Cell Res. 215: 332-337]. Hepatocytes were pretreated with different concentrations of AR during […] before addition of actinomycin D and Jo2 antibody. Measurements of apoptosis and related molecular events, were made 18 h later. […] Likewise, they found antiapoptotic protein Bcl-xL to be induced by treatment with AR in mouse hepatocytes treated with Jo2 (FIG. 4B). In order to identify the AR antiapoptotic signaling mechanisms, PI-3K/Akt and ERK1/2 pathways were studied, as they are general mediators of cell survival [(4), (6)]. […] A key signaling molecule implicated in protection against liver damage induced by Fas is STAT3 [(34) Shen, Y., Devgan, G., Darnell, J. E., Bromberg, J. F. 2001. Constitutively activated Stat3 protects fibroblasts from serum withdrawal and UV-induced apoptosis and antagonizes the proapoptotic effects of activated Statl. Proc. Natl. Acad. Sci. USA. 98: 1543-1548. (35) Haga, S., Terui, K., Zhang, H. Q., Enosawa, S., Ogawa, W., Inoue, H., Okuyama, T., Takeda, K., Akira, S., Ogino, T., et al. 2003. Stat3 protects against Fas-induced liver injury by redox-dependent and -independent mechanisms. J. Clin. Invest. 112: 989-998].
Hepatocytes were isolated from male Wistar rats (150 g) and C57/BL6 mice (20 g) by perfusion with collagenase (Gibco-BRL, Paisley, UK) as described elsewhere [(18), (20)]. Cells (5×10^5 cells per well) were plated onto 6-well plates coated with collagen (type I collagen, Collaborative Biomedical, Bedford, Mass., USA). Cultures were maintained in MEM medium supplemented with 10% fetal calf serum (FCS), non-essential amino acids, glutamine 2 mM and antibiotics (all supplied by Gibco-BRL). After 2 h of incubation, the medium was removed and cells were again cultured in the same medium with 5% FCS. Where applicable, hepatocytes were treated with IL-1β or TNFα from Roche (Mannheim, Germany), HGF or forskolin from Calbiochem (San Diego, Calif., USA), IL6 from RD Systems (Wiesbaden-Nordenstadt, Germany), or PGE2 from Alexis QBiogene (Carlsbad, Calif., USA).
Apoptosis was induced in cultured mouse hepatocytes by treatment with 0.5 μg/ml of Jo2 antibody and 0.05 μg/ml of actinomycin D as described elsewhere (5). Where applicable, the hepatocytes were treated with AR 6 h before the addition of Jo2 antibody and actinomycin D. Apoptosis was estimated by determining soluble histone-DNA complexes using the Cell Death Detection Assay (Roche). ELISA tests for determining cell death were carried out following the manufacturer's instructions. The specific enrichment of mono- and oligonucleosomes released in the cytoplasm (enrichment factor, EF) was calculated as the ratio between the absorbance values of the samples corresponding to treated cells and control cells. […]
Caspase-3 activity in mouse hepatocytes and liver tissue lysates was assessed using the Caspase-3/CPP32 colorimetric assay kit (BioVision, Palo Alto, Calif., USA). […]

A further assay relates to hepatocytes. As to the kind of experiment: Apoptosis induced by other agents (TNFα plus galactosamine, okadaic acid, TGFβ) in hepatocytes. The conditions noted are these: okadaic acid and TGFβ, data not shown.

B1: amphiregulin (protein)
chain: SVRVEQVVKPPQNKTESENTSDKPKRKKKGGKNGKNRRNRKKKNPCNAEFQNFCIHGECKYIEHLEAVTCKCQQEYFGERCGEKSMKTHSMIDSSLSK
notes: polypeptide growth factor belonging to the EGF family, ligand of EGF receptor; human recombinant AR (Sigma) used
Take B1: in the assay with rat hepatocytes, the “DNA synthesis, incorporation of [3H]thymidine to DNA” value is “stimulating the incorporation of [^3H]thymidine to DNA in a dose-dependent manner”. In addition, in the assay on isolated rat hepatocytes, the “levels of mRNA encoding CT-1” value was “increased” and the “levels of mRNA encoding TGFα” value is “increased”. The “antiapoptotic protein Bcl-xL (Western blot)” value in assay [1] (AR 20 nM, mouse hepatocytes treated with Jo2) was “induced”. Further, the “proteolysis and activation of caspase-3 induced by Jo2 antibody” value in assay [1] (AR 20 nM, mouse hepatocytes treated with actinomycin D and Jo2) was “significantly inhibited”. For the same molecule, the “apoptosis (enrichment factor of mono- and oligonucleosomes)” value in assay [1] (increasing concentrations of AR before actinomycin D and Jo2, measured 18 h later) is recorded as “protected from apoptosis by AR in a dose-dependent manner”. Also, in the assay with hepatocytes, the “cytoprotective activity against apoptosis induced by other agents” value is reported as “cytoprotective activity was also seen”.
